Tests used:
[1] = target: C30-His6 (short form of SafA made by internal translation of the safA mRNA) (Bacillus subtilis); assay: SEC-SAXS; SEC peak fractions of C30; synchrotron SEC-SAXS at BM29 ESRF with in-line HPLC; in the absence of Tgl
[2] = target: C30-His6 (short form of SafA made by internal translation of the safA mRNA) (Bacillus subtilis); assay: SEC; purified C30-His6 applied to a size exclusion column at 3.5 mg/ml; eluted as a main single sharp peak; mass by elution position
[3] = target: C30-His6 (short form of SafA made by internal translation of the safA mRNA) (Bacillus subtilis); assay: SDS-PAGE of the purified protein (species resistant to denaturation); purified C30 without Tgl or at time 0 of the cross-linking assays; 37°C, Tris-HCl 0.1 M, pH 8.0; 10% SDS-PAGE, Coomassie

C30-His6 (short form of SafA made by internal translation of the safA mRNA) (natural protein)
stoichiometry N [1]: 6 | stoichiometry N [2]: 6 | stoichiometry N [3]: 2

— paper PMC6490927
